This note sets out measurements from US6423827 (UNIVERSITY OF MEDICINE AND DENTISTRY OF NEW JERSEY, dated 2002).

The assay concerns the target T1, recombinant rat LAMP (limbic system-associated membrane protein) expressed at the surface of CHO cells (CHOL … (rat, UniProt Q62813 29-315, PI (GPI) linkage to the membrane at the processed C-terminus, at or near Asn315)); N-linked glycosylation (apparent 55 kDa)).
T1 construct: The C-terminal limit 315 is only 'at or near'; also called LAMP cDNA transfected cells
T1 sequence: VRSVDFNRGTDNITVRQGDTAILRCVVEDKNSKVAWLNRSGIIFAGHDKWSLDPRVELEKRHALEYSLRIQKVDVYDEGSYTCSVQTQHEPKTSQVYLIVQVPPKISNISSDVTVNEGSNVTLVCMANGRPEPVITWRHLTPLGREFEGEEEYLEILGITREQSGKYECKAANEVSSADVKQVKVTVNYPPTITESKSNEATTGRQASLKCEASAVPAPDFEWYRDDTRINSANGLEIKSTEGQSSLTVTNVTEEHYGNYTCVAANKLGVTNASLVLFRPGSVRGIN
The experiment in a line: fluorescent beads coated with native LAMP, incubated with CHO cells expressing rat LAMP. Here is the method: To test whether CHO_L cells can bind external LAMP, fluorescent synthetic beads of 2 μm diameter, which have reactive sites for covalently linking protein (Covasphere™ beads, Duke Scientific, Palo Alto, Calif.), were coated with native LAMP that had been released from hippocampal membranes with PI-specific phospholipase C. The beads were incubated with the recombinant cells and the extent of binding to the cell surface determined.

B1: native rat LAMP from hippocampal membranes (receptor)
chain: T1 sequence
modifications: N-linked glycosylation (apparent 64-68 kDa)
notes: The C-terminal limit 315 is only 'at or near'; also called native LAMP; external LAMP
Regarding B1, the binding result is on record as “binds”.
